Test results: paper PMC5434554, “Structural similarities and functional differences clarify evolutionary relationships between tRNA healing enzymes and the myelin enzyme CNPase” (BMC Biochemistry, 2017)

B1: ScTrl1 PNK/CPDase (Saccharomyces cerevisiae S288C) (protein)
chain: RTKFLIFPISVIGCGKTTTSQTLVNLFPDSWGHIQNDDITGKDKSQLMKKSLELLSKKEIKCVIVDRNNHQFRERKQLFEWLNELKEDYLVYDTNIKVIGVSFAPYDKLSEIRDITLQRVIKRGNNHQSIKWDELGEKKVVGIMNGFLKRYQPVNLDKSPDNMFDLMIELDFGQADSSLTNAKQILNEIHKAYPILVPEIPKDDEIETAFRRSLDYKPTVRKIVGKGNNNQQKTPKLIKPTYISAKIENYDEIIELVKRCIASDAELTEKFKHLLASGKVQKELHITLGHVMSSREKEAKKLWKSYCNRYTDQITEYNNNRIENAQGSGNNQNTQVKTTDKLNFRLEKLCWDEKIIAIVVELSKDKDGCIIDENNEKIKGLCCQNKIPHITLCKLESGVKAVYSNVLCEKVESAEVDENIKVVKLDNSKEFVGSVYLNF
B2: ScTrl1 CPDase (Saccharomyces cerevisiae S288C) (protein)
chain: GQADSSLTNAKQILNEIHKAYPILVPEIPKDDEIETAFRRSLDYKPTVRKIVGKGNNNQQKTPKLIKPTYISAKIENYDEIIELVKRCIASDAELTEKFKHLLASGKVQKELHITLGHVMSSREKEAKKLWKSYCNRYTDQITEYNNNRIENAQGSGNNQNTQVKTTDKLNFRLEKLCWDEKIIAIVVELSKDKDGCIIDENNEKIKGLCCQNKIPHITLCKLESGVKAVYSNVLCEKVESAEVDENIKVVKLDNSKEFVGSVYLNF

Substrate: NC(=O)c1ccc[n+]([C@@H]2O[C@H](COP(=O)(O)OP(=O)(O)OC[C@H]3O[C@@H](n4cnc5c(N)ncnc54)[C@@H]4OP(=O)(O)O[C@@H]43)[C@@H](O)[C@H]2O)c1
Assay: purified protein
Conditions: 100 mM MES pH 6.0, 3 mM MgCl2, 5 mM glucose-6-phosphate, 25 °C, CPDase site

Row | Protein | Km | kcat | kcat/Km
1 | B1 | 420 ± 35 µM | 317 s⁻¹ | 750000 M⁻¹ s⁻¹
2 | B2 | 237 ± 27 µM | 275 s⁻¹ | 1.16e+06 M⁻¹ s⁻¹
